According to patent US10660939 (PALATIN TECHNOLOGIES, dated 2020):
Positions of bridges follow the written chain, without caps; N, C: chain ends. Non-standard residues stand in square brackets, D forms with d. 2Nal = N[C@@H](Cc1ccc2ccccc2c1)C(=O)O; Aad = N[C@@H](CCCC(=O)O)C(=O)O; Orn = NCCC[C@H](N)C(=O)O; Dab = NCC[C@H](N)C(=O)O

Legend:
[1] = target: T1, human melanocortin receptor-4 (human, UniProt P32245 1-332); assay: cell-based or functional assay
[2] = target: human melanocortin receptor-1 (human, UniProt Q01726 1-317); assay: cell-based or functional assay
[3] = target: T1, human melanocortin receptor-4; assay: cell-based or functional assay; remark: listed apart in the source
[4] = target: T1, human melanocortin receptor-4; assay: ratio of Ki at hMC1r to Ki at hMC4r
[5] = target: T1, human melanocortin receptor-4; assay: competition with [I125]-NDP-α-MSH, hMC4r HEK-293 membranes
[6] = target: T1, human melanocortin receptor-4; assay: competition with Eu-NDP-α-MSH, hMC4r HEK-293 membranes
Experimental: After incubation for 90 minutes at 37° C., the reaction was stopped by filtration over AcroWell 96-well filter plates (Pall Life Sciences). The filter plates were washed 4 times with 200 μL of ice-cold phosphate-buffered saline. DELFIA Enhancement solution (PerkinElmer Life Sciences) was added to each well. The plates were incubated on a shaker for 15 minutes and read at 340 nm excitation and 615 nm emission wavelengths. Each assay was conducted in duplicate and mean values were utilized. Ki values were determined by curve-fitting with Graph-Pad Prism® software using a one-site fixed-slope competition binding model.

Sequence of human melanocortin receptor-1 (Q01726 whole entry): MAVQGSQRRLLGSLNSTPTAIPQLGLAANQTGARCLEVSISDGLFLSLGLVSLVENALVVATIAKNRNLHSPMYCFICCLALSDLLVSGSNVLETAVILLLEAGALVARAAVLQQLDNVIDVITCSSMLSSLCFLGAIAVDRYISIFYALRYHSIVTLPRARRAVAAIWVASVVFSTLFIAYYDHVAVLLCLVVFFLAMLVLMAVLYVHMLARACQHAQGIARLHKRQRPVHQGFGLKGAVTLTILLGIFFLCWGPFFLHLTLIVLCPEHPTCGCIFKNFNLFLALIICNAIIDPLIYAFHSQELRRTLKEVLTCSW
T1 sequence (P32245 whole entry): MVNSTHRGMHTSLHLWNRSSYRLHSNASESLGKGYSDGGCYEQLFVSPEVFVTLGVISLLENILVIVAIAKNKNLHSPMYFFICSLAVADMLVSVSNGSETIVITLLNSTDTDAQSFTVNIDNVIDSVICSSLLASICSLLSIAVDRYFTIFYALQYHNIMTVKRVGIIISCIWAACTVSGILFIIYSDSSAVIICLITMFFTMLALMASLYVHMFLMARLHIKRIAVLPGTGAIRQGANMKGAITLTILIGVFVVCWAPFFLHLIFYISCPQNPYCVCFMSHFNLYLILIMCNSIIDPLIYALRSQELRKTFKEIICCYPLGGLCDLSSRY

B1: Peptide No. 152 (peptide)
peptide: Ac-[dR][Orn]Q[dF]RWE-NH2
modifications: lactam 2-7
In the case of B1, the “hMC4r Emax” value [1] is reported as 89% and the “hMC1r Emax” value [2] is reported as 85%.

B2: Peptide No. 154 (peptide)
peptide: Ac-R[Orn]N[dF]RWE-NH2
modifications: lactam 2-7
For B2, the “hMC1r EC50” value [2] was 25 nM.

B3: Peptide No. 156 (peptide)
peptide: Ac-[dR][Orn]N[dF]RWE-NH2
modifications: lactam 2-7
With B3 the “hMC1r EC50” value [2] was 80 nM and the “hMC1r Emax” value [2] was 81%.

B4: Peptide No. 126 (peptide)
peptide: Ac-R[Aad]H[dF]RW[Dab]-NH2
modifications: lactam 2-7
In the case of B4, the “intrinsic activity (cAMP, NDP-α-MSH is 100%)” value [3] is reported as 101%.

B5: Peptide No. 160 (peptide)
peptide: Ac-R[Aad]N[dF]RW[Dab]-NH2
modifications: lactam 2-7
notes: also called Ac-Arg-cyclo(hGlu-Asn-D-Phe-Arg-Trp-Dab)-NH2
For B5, the “hMC4r EC50” value [1] was 0.245 nM and the “hMC4r Emax” value [1] was 98%.

B6: Peptide No. 159 (peptide)
peptide: RXQFRWX
modifications: N-terminal Ac; Dab 2 (X); D-Phe 4; hGlu 7 (X); cyclo(Dab 2-hGlu 7); C-terminal NH2
notes: also called Ac-Arg-cyclo(Dab-Gln-D-Phe-Arg-Trp-hGlu)-NH2
In the case of B6, the “hMC4r EC50” value [1] is reported as 0.825 nM, the “hMC4r Emax” value [1] is reported as 99% and the “hMC1r EC50” value [2] is reported as 26 nM. The “hMC1r Emax” value [2] was 98% and the “binding selectivity, MC4r against MC1r” value [4] was 20 fold.

B7: Peptide No. 128 (peptide)
peptide: Ac-R[Dab]H[dF]RW[Aad]-NH2
modifications: lactam 2-7
For B7, the “intrinsic activity (cAMP, NDP-α-MSH is 100%)” value [3] was 95%.

B8: Peptide No. 165 (peptide)
peptide: Ac-RE[Dab][dF]RW[Orn]-NH2
modifications: lactam 2-7
notes: also called Ac-Arg-cyclo(Glu-Dab-D-Phe-Arg-Trp-Orn)-NH2
For B8, the Ki [5] was 0.65 nM.

B9: Peptide No. 16 (peptide)
peptide: Ac-RDV[dF]RWK-NH2
modifications: lactam 2-7
With B9 the “intrinsic activity (cAMP, NDP-α-MSH is 100%)” value [3] was 42%.

B10: Peptide No. 71 (peptide)
peptide: Ac-[dR]DQ[dF]RWK-NH2
modifications: lactam 2-7
B10 was tested, and the “hMC4r Emax” value [1] was 89% and the “hMC1r Emax” value [2] was 88%.

B11: Peptide No. 73 (peptide)
peptide: RDRFRWK
modifications: N-terminal Ac; D-Phe 4; cyclo(Asp 2-Lys 7); C-terminal OH
notes: also called Ac-Arg-cyclo(Asp-Arg-D-Phe-Arg-Trp-Lys)-OH
B11 gave a Ki [6] of 60 nM.

B12: Peptide No. 28 (peptide)
peptide: RDRFRWK
modifications: N-terminal Ac; D-Phe 4; cyclo(Asp 2-Lys 7); C-terminal NH2
notes: also called Ac-Arg-cyclo(Asp-Arg-D-Phe-Arg-Trp-Lys)-NH2
Binder B12 has a Ki [6] of 4 nM.

B13: Peptide No. 161 (peptide)
peptide: Ac-REN[dF]RW[Orn]-NH2
modifications: lactam 2-7
notes: also called Ac-Arg-cyclo(Glu-Asn-D-Phe-Arg-Trp-Orn)-NH2
In the case of B13, the “hMC4r EC50” value [1] is reported as 0.413 nM, the “hMC4r Emax” value [1] is reported as 91% and the “hMC1r EC50” value [2] is reported as 13 nM. The “hMC1r Emax” value [2] was 85% and the “binding selectivity, MC4r against MC1r” value [4] was 20 fold.

B14: Peptide No. 155 (peptide)
peptide: Ac-RKN[dF]RWD-NH2
modifications: lactam 2-7
notes: also called Ac-Arg-cyclo(Lys-Asn-D-Phe-Arg-Trp-Asp)-NH2
With B14 the “hMC4r EC50” value [1] was 0.189 nM, the “hMC4r Emax” value [1] was 97% and the “hMC1r EC50” value [2] was 14 nM. For the same binder, the “hMC1r Emax” value [2] was 91% and the “binding selectivity, MC4r against MC1r” value [4] was 20 fold.

B15: Peptide No. 1 (peptide)
peptide: Ac-RDH[dF]RWK-NH2
modifications: lactam 2-7
For B15, the “intrinsic activity (cAMP, NDP-α-MSH is 100%)” value [3] was 91%.

B16: Peptide No. 32 (peptide)
peptide: Ac-RDQ[dF]RWK-NH2
modifications: lactam 2-7
With B16 the “intrinsic activity (cAMP, NDP-α-MSH is 100%)” value [3] was 98%.

B17: Peptide No. 150 (peptide)
peptide: Ac-R[Orn]Q[dF]RWE-NH2
modifications: lactam 2-7
B17 was tested, and the “hMC1r Emax” value [2] was 89%.

B18: Peptide No. 162 (peptide)
peptide: Ac-RKN[dF]R[2Nal]D-NH2
modifications: lactam 2-7
SMILES: CC(=O)N[C@@H](CCCNC(=N)N)C(=O)N[C@H]1CCCCNC(=O)C[C@@H](C(N)=O)NC(=O)[C@H](Cc2ccc3ccccc3c2)NC(=O)[C@H](CCCNC(=N)N)NC(=O)[C@@H](Cc2ccccc2)NC(=O)[C@H](CC(N)=O)NC1=O
notes: also called Ac-Arg-cyclo(Lys-Asn-D-Phe-Arg-Nal2-Asp)-NH2
For B18, the “hMC4r EC50” value [1] was 0.85 nM, the “hMC4r Emax” value [1] was 82% and the “hMC1r EC50” value [2] was 22 nM. The “hMC1r Emax” value [2] was 89% and the “binding selectivity, MC4r against MC1r” value [4] was 20 fold.
